# Test results reported in the nanobody polyreactivity screen of Harvey et al. (2022).
# Assay: yeast display, Sf9 membrane polyspecificity reagent, FACS + sequencing; frameworks hold sequencing errors
# Procedure, shortened: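 Genes from sorted yeast were amplified by colony PCR, read by MiSeq 2 × 250 sequencing and filtered on CDR length. These cells carried a synthetic nanobody library in Saccharomyces cerevisiae BJ5465 and were sorted by FACS into low and high (top ~1%) gates on anti-HA and streptavidin fluorescence. Polyreactivity is labelled according to the gate of origin.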
row,Sequence,polyreactivity (PSR sort gate)
1,QVQLVESGGGLVQAGGSLRLSCAASGRIFYGYARGWYRQAPGKDRELVAAIRWYGGNTYYADSVKGRFTISRDNAKNTVYLQMNSLKPEDTAVYYCNARTEYASSRYYYWGQGTQVTVSS,high polyreactivity
2,QVQLVESGGGLVQAGGSLRLSCAASGRIFYGYTMGWYRQAPGKERELVASIDYSTGRTYYADSVKGRFTISRDNAKNTVYLQMNSLKPEDTAVYYCNADPNYSLLRYDYWGQGTQVTVSS,high polyreactivity
3,QVQLVESGGGLVQAGGSLRLSCAASGRIFYGYTMGWYRQAPGKERELVASITIRGSRTYYADSVKGRFTISRDNAKNTVYLQMNSLKPEDTAVYYCAADFVPARTVHRYDYWGQGTQVTVSS,low polyreactivity
4,QVQLVESGGGLVQAGGSLRLSCAASGRIFYGYVMGWYRQAPGKERELVAAISWSAGRTYYADSVKGRFTISRDNAKNTVYLQMNSLKPEDTAVYYCAARYFSLYVWSTFEYWGQGTQVTVSS,high polyreactivity
5,QVQLVESGGGLVQAGGSLRLSCAASGRIFYHNTMGWYRQAPGKERELVAAITTSGSTYYADSVKGRFTISRDNAKNSVYLQMNSLKPEDTSVYYCAARALRWFNYWGQGTQVTVSS,high polyreactivity
6,QVQLVESGGGLVQAGGSLRLSCAASGRIFYHYAMGGYRPAPGKERELVAAISSSTGRSYYADSVKGRFTFSRDNAKNTVYLQMNSLKPEDSAVYYCATTPGYYGYISPRIRLYDYWGQGTQVTVSS,high polyreactivity
7,QVQLVESGGGLVQAGGSLRLSCAASGRIFYHYAMGWYRQAPGKERELVAAITWSGVSTYYADSVKGRFTISRDNAKNTVYLQMNSLKPDDTAVYYCATSSRYGVRRYSRGSWGQGSQVTVSS,high polyreactivity
8,QVQLVESGGGLVQAGGSLRLSCAASGRIFYHYAMGWYRQAPGKERELVAVIRSTGSTNYADSVKGRFTISRDNAKNTVYFQLKSLIPEDTAVYYCAVRRATFSYWYFNGGYWGQGTQVTVSS,high polyreactivity
9,QVQLVESGGGLVQAGGSLRLSCAASGRIFYINALGWYRQAPGKERELVASITGSGDSTYYADSVKGRFTISRDNAKNTVELQMNSLKPEDTAVYYCAARTYYYYGPRYYYWGQGTQVTVSS,low polyreactivity
10,QVQLVESGGGLVQAGGSLRLSCAASGRIFYIYAMGWYRQAPGKERELVASITSSGTSTYADSVKGRFTISRDNAKNTVYLQMNSLKPEDTAVYYCNARGYPKSWRYSRGYEYWGQGTQVTVSS,low polyreactivity
11,QVQLVESGGGLVQAGGSLRLSCAASGRIFYKYAKGWYRQAPGKERELVAAITTSGGSTYYADSVKGRFTISRDNAKNTVYLQMKSLKPEDTAVYYCARDLNGRFLTTGRGMDYWGQGTQVTVSS,high polyreactivity
12,QVQLVESGGGLVQAGGSLRLSCAASGRIFYKYAMGWYRPAPGKERELVAAISWSGGRTYYADSVKGRFTISRDNAKNTVYLQMNSLKPEDTAVYYCNAVYAGFLRVRYDYWGQGTQVTVSS,high polyreactivity
13,QVQLVESGGGLVQAGGSLRLSCAASGRIFYKYAMGWYRQAPGKERELVAAISWSGGRTYYADSVKGRFTISRDNAKNTVYLQMNSLKPEDTAVYYCAAVRGGASGGYDYWGQGTQVTVSS,high polyreactivity
14,QVQLVESGGGLVQAGGSLRLSCAASGRIFYKYVMGWYRQAPGNERELVATITSGGSTYYADSVKGRFTISRDNAKNTVYLQMNSLKPEDTAVYYCAARKYYSRAYDYWGQGTQVTVSS,high polyreactivity
15,QVQLVESGGGLVQAGGSLRLSCAASGRIFYLNAMGWYRQAPGKERELVAGITNSTTGTYYADSVKGRFTISRDNAKNTVYLQMNCLKPEDTAVYYCITDVAYEEPVETYDYWGQGTQVTVSS,low polyreactivity
16,QVQLVESGGGLVQAGGSLRLSCAASGRIFYNVMGWYRQAPGKERELVAAISSSGGRTYYADSVKGRFTISRDNAKNTVYLQMNSLKPEDTAVYYCAARAWYYGYWGQGTQVTVSS,high polyreactivity

row,Sequence,polyreactivity (PSR sort gate)
1,QVQLVESGGGLVQAGGSLRLSCAASGRIFYNYAMGWYRQAPGKERELLAAISWSGTSTYYADSVKGRFTISRDNAKNTVYLQMNSLKPEDTAVYYCATDRTYTARGYYLEYHRYDYRGQGTQVTVSS,low polyreactivity
2,QVQLVESGGGLVQAGGSLRLSCAASGRIFYNYAMGWYRQAPGKERELVAAISGSGGSTYYADSVKGRFTISRDNAKKTVYLQMNSLKPEDTAVYYCSTSGPQYYSRNFDYWGQGTQVTVSS,low polyreactivity
3,QVQLVESGGGLVQAGGSLRLSCAASGRIFYNYAMGWYRQAPGKERELVAAISGSGGSTYYADSVKGRFTISRDNAKNTVYLQMNSLKPEDTAVYYCAKDYRWDRKFDYWGQGTQVTVSS,low polyreactivity
4,QVQLVESGGGLVQAGGSLRLSCAASGRIFYNYAMGWYRQAPGKERELVAAISGSGGSTYYADSVKGRFTISRDNAKNTVYLQMNSLKPEDTAVYYCNARDVVYLITPYFLVYVNLDYWGQGTQVTVSS,low polyreactivity
5,QVQLVESGGGLVQAGGSLRLSCAASGRIFYNYAMGWYRQAPGKERELVAAISSSGGSTYYADSVKGRFTISRDNAKNTVYLQMNSLKPEDTAVYYCAVRKQYSGRYYRAYDYWGQGTQVTVSS,high polyreactivity
6,QVQLVESGGGLVQAGGSLRLSCAASGRIFYPNAMGWYRQAPGKERELVAAISKRGGRTYYADSVKGRFTISRDNAKNTVYLQMNSLNPEDTAVYYCATRWASYPRTGRYDYWGQGTQVTVSS,high polyreactivity
7,QVQLVESGGGLVQAGGSLRLSCAASGRIFYPNDLGWYRQAPGKERELVAAITRDGSTNYADSVKGRFTISRDNAKNTVYLQMNSLKPEDTAVYYCAADISDWYIIRRMNYWGQGTQVTVSS,low polyreactivity
8,QVQLVESGGGLVQAGGSLRLSCAASGRIFYPYAMGWYRQAPGKERELVAAIRRSGVDTYYADSVKGRFTISRDNAKNTVYFQMNSLKPEDTAVYYCAADPYWFFPHYDSWGQGTQVTVSS,low polyreactivity
9,QVQLVESGGGLVQAGGSLRLSCAASGRIFYPYAMGWYRQAPGKERELVASITWRGGSTYYADSVKGRFTISRDNAKNTVYLQMNSLKPEDTAVYYCAAVPYSYTYVYLSHYDYWGQGTQVTVSS,low polyreactivity
10,QVQLVESGGGLVQAGGSLRLSCAASGRIFYPYAMGWYRQAPGKERELVAVISYSGGGTYYADSVKWRFTISRDNAKNTVYLQMNRMKPEDTAVYYCAAYADYSYYVYDYWGQGTQVTVSS,high polyreactivity
11,QVQLVESGGGLVQAGGSLRLSCAASGRIFYQNAMGWYRQAPGKERELVADISSGGSTYYADSVKGRFTISRDNAKNTVYLQMNSLKPEDTAVYYCNTPSGPGTVGSYRRKWYGYWGQGTQVTVSS,low polyreactivity
12,QVQLVESGGGLVQAGGSLRLSCAASGRIFYQYAMGWYRQAPGKERELVAAITRGGNTYYADSVKGRFTISRDNAKNTVYLQMNSLKPEDTAVYYCNARWHTTGYRYDYWGQGTQVTVSS,high polyreactivity
13,QVQLVESGGGLVQAGGSLRLSCAASGRIFYRNAMGWYRPAPGKERELVASITSAGRTYYADSVKGRFTISRDNAKNTVYLQMNSLKPEDTAVYYCAVRVAVLLNLYGYWGQGTQVTVSS,low polyreactivity
14,QVQLVESGGGLVQAGGSLRLSCAASGRIFYRNGMGWYRQAPGKERELVAAISYSGGRTYYADSVKGRFTISRYNAKNTVYLQMNSLKPEDTAVYYCAAQWFEDFLYPWLEYDYWGQGTQVTVSS,high polyreactivity
15,QVQLVESGGGLVQAGGSLRLSCAASGRIFYRYAMGWYRPAPGKERELVAAIRYSGGRTYYADSVKGRFTISRDNAKNTVYLQMISLKPEDTAVYYCAADGQWYYAPFRGGDYENDYWGQGTQVTVSS,low polyreactivity
